From patent US20100129344A1, “MEDICAL USES AND THERAPIES BASED UPON THE ACTION OF AZUROCIDIN ON IGFBP-1” (priority 2005, published 2010)

Columns and labels:
[1] = target: T1, IGFBP-1 (Homo sapiens, UniProt P08833); assay: Azurocidin-dependent IGFBP-1 protease activity (SDS-PAGE, ECL or silver staining); type: biochemical
T1 construct: purchased Kabi Pharmacia (Sweden), donated
T1 sequence (P08833 26-259): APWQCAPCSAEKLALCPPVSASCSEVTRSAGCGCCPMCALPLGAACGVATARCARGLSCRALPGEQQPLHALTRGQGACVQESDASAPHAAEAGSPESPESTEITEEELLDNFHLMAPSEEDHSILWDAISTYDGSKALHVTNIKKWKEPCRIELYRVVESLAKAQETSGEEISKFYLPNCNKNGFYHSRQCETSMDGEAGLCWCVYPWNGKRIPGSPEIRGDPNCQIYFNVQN
Protocol: Recombinant phosphorylated IGFBP-1 was used as substrate and incubations were carried out under neutral conditions for 2 h at 37 C. IGFBP-1 fragments were separated on SDS-PAGE, and detected by ECL as described in the methods. Panel A: Incubations with 0.25 μL eluate (HE) from heparin affinity chromatography (50 μl urine equiv.) in the presence and absence of anti-azurocidin antibody; and 1 μl HE of the loading material (L), and the flow through after affinity chromatography on protein G columns without (G) and with bound anti-chymase (C) or anti-azurocidin (A) antibodies. Panel B: Incubations in the presence and absence of 25 ng anti-azurocidin antibody with increasing volumes of white cell extract from the individual with a specific IGFBP-1 protease in urine compared to the white cell extract pooled from 6 healthy subjects;
Recombinant IGFBP-1 was incubated with the eluate from heparin affinity chromatography (HE) with a ratio of azurocidin:BP-1 of 1:3,500. After the times indicated, proteins were detected by silver staining after SDS-PAGE;
Gels were fixed, dried and analysed with the Fuji PhosphoImage program (Fuji Co., Stockholm, Sweden). Biotinylated IGFBP-1 and its fragments were separated on 14% SDS-PAGE under reducing conditions, transferred to PVDF (Biorad, Sundbyberg, Sweden), incubated with neutravidin-horseradish peroxidase (Pierce Biotechnology Inc, Rochester, Ill.) and detected by ECL (Amersham Biosciences, Uppsala, Sweden). Silver staining of proteins and fragments was performed after denaturing 12% PAGE under reducing conditions (SilverQuest and NuPAGE, Invitrogen, Stockholm, Sweden).
Heparin affinity chromatography was carried out in batches using heparin-agarose gel (Pharmacia). Urine was diluted 1:5 in 10 mM sodium phosphate, with 0.25 M NaCl buffer, pH 7 and incubated with gel for 30 min at 4 C. The gel was transferred to a column and washed with 10 times the gel volume of buffer. Heparin binding proteins were eluted in loading buffer containing 2M NaCl and the eluate was desalted, concentrated using a 10 kDa spin column and stored at −80 C. Concentrated material derived from 700 ml urine were applied to C4 reverse-phase HPLC, in 0.1% TFA on an acetonitrile gradient of 0-100%. Immunoaffinity chromatography was performed using monoclonal anti-azurocidin antibody attached to protein G Sepharose (Sigma-Aldrich, Sweden). In brief, antibody bound gel was incubated with the eluate from heparin affinity chromatography for 2 h at 22 C, and transferred to a Bio-Spin chromatography column (BioRad). The flow-through was collected for analysis of protease activity. As controls, an additional column was prepared with a monoclonal antibody against human mast cell chymase and a second column with no bound antibody.

[2] = tested on: monocyte; settings: cited from earlier work
[3] = pH increased from 5.5 to 6.5; cited from earlier work
[4] = target: IGF-I (Homo sapiens, UniProt P05019); settings: IGFBP-1 purified from amniotic fluid; cited from earlier work
[5] = target: IGF-II (Homo sapiens, UniProt P01344); settings: IGFBP-1 purified from amniotic fluid; cited from earlier work
Chain of IGF-II (P01344 25-91): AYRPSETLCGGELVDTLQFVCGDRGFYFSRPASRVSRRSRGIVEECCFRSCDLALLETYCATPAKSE

Chain of IGF-I (P05019 49-118): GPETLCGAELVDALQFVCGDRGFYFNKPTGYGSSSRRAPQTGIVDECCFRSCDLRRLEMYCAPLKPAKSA

B1: azurocidin: protein from granules of human polymorphonuclear leukocytes, SEQ ID NO. 1; identified here as IGFBP-1 specific protease (protein, listed as Homo sapiens)
chain: IVGGRKARPRQFPFLASIQNQGRHFCGGALIHARFVMTAASCFQSQNPGVSTVVLGAYDLRRRERQSRQTFSISSMSENGYDPQQNLNDLMLLQLDREANLTSSVTILPLPLQNATVEAGTRCQVAGWGSQRSGGRLSRFPRFVNVTVTPEDQCRPNNVCTGVLTRRGGICNGDGGTPLVCEGLAHGVASFSLGPCGRGPDFFTRVALFRDWIDGVLNNPGPGPA
[1]
  pH above which action on IGFBP-1 is greater: > 6
[1]; after reverse-phase HPLC
  effect on IGFBP-1 (proteolysis) after HPLC-passage: without effect
[1]; protease:substrate molar ratio 1:3,500
  time until proteolysis of phosphorylated IGFBP-1 is seen: within minutes
[1]; purified preparation
  concentration at which proteolytic effect on IGFBP-1 is noticeable: nanomolar
[2]
  concentration level required for monocyte chemotaxis: micromolar
[3]
  decrease of bactericidal activity: at least 50%

B2: IGFBP-1 purified from amniotic fluid: 28 kDa IGF-binding protein purified from human amniotic fluid (protein, UniProt P08833 26-259, looked up)
Insulin-like growth …: APWQCAPCSAEKLALCPPVSASCSEVTRSAGCGCCPMCALPLGAACGVATARCARGLSCRALPGEQQPLHALTRGQGACVQESDASAPHAAEAGSPESPESTEITEEELLDNFHLMAPSEEDHSILWDAISTYDGSKALHVTNIKKWKEPCRIELYRVVESLAKAQETSGEEISKFYLPNCNKNGFYHSRQCETSMDGEAGLCWCVYPWNGKRIPGSPEIRGDPNCQIYFNVQN
[4]
  association constant for IGF-I: approximately 6.6×10^9 L/mol
[5]
  association constant for IGF-II: ~3.2e+09 L/mol
